In patent publication US20030027246A1, “Immunogenic peptides derived from prostate-specific membrane antigen (PSMA) and uses thereof” (priority 2000, published 2003) one finds Fluorescence Index (FI) data, which are given here for two molecules.

The assay addresses membrane-bound HLA-A0201 molecule on T2 cells (human). Kind of assay: T2 cell HLA-A0201 stabilisation at 125.0 µM peptide, BB7.2 staining, flow cytometry. As to conditions: remark: other sources report otherwise. A general note: In flow cytometry, cells or beads pass a laser one at a time.

In turn, ELAHYDVLL [CLP-330] yielded a Fluorescence Index (FI) of 0.7 FI.

As for VLAGGFFLL [CLP-328], the Fluorescence Index (FI) was found to be 1.3 FI.
